Data on three molecules can be found in article PMC3343102, “Dynamics of Brassinosteroid Response Modulated by Negative Regulator LIC in Rice”.

The target of this series is T1, MBP-OsBZR1 (Oryza sativa, UniProt Q7XI96 1-298).
T1 sequence: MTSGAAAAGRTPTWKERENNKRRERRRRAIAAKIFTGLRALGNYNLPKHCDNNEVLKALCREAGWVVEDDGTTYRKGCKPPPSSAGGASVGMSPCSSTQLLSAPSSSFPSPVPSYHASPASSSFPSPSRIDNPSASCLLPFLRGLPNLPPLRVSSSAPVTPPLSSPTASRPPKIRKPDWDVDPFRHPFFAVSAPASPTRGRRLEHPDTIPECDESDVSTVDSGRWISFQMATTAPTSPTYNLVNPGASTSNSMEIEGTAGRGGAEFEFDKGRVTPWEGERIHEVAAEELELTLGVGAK
The series can be described thus: EMSA; EMSA, 20 uL: 2 ug protein; 2 uL 10x buffer (100 mM Tris, 500 mM KCl, 10 mM DTT, pH 7.5), 1 uL each of 50% glycerol, 1% NP-40, 1 M KCl, 100 mM MgCl2, 200 mM EDTA, 1 ug/uL poly(dI-dC); i.e. about 10 mM Tris, 100 mM KCl, 5 mM MgCl2, 10 mM EDTA; 25 C, 20 min; 10% native PAGE. The note with it: protein: recombinant; tags: MBP (N-terminal fusion, pETMALc-H); chain copies: 2; label: biotin 3' end; blunt.

B1: LIC promoter P2 (dsDNA)
DNA 1: CGGGCGCGTGTGTGGCGG
DNA 2: CCGCCACACACGCGCCCG
On to B1, for which the binding result is listed as “no binding”.

B2: MP1 (P1 with CGTGCG to CGAAAA) (dsDNA)
DNA 1: CGACGTCGAAAAGCCGCG
DNA 2: CGCGGCTTTTCGACGTCG
For the molecule B2, the binding result is reported as “no binding”.

B3: LIC promoter P1 (dsDNA)
DNA 1: CGACGTCGTGCGGCCGCG
DNA 2: CGCGGCCGCACGACGTCG
As to B3, the binding result is listed as “binds”.
